# Laboratory results taken from patent US6913892.
# Where no end group is shown, it is not given here.
# Target: Y2-like receptor population expressed by human SK-N-Be(2) neuroblastoma cells
# Test: 125I-PYY displacement, SK-N-Be(2) membranes
binder,measurement,value
"SPEELSRYYASLRHYLNLVTRQRY-NH2 (peptide, UniProt P68005 13-36, looked up) [porcine PYY13-36]",Ki,0.86 nM
